Data from patent publication US20070072210.

Test system: T1, His-tagged full length BAAT1 (baculovirus, produced in Sf9 cells)
T1 sequence: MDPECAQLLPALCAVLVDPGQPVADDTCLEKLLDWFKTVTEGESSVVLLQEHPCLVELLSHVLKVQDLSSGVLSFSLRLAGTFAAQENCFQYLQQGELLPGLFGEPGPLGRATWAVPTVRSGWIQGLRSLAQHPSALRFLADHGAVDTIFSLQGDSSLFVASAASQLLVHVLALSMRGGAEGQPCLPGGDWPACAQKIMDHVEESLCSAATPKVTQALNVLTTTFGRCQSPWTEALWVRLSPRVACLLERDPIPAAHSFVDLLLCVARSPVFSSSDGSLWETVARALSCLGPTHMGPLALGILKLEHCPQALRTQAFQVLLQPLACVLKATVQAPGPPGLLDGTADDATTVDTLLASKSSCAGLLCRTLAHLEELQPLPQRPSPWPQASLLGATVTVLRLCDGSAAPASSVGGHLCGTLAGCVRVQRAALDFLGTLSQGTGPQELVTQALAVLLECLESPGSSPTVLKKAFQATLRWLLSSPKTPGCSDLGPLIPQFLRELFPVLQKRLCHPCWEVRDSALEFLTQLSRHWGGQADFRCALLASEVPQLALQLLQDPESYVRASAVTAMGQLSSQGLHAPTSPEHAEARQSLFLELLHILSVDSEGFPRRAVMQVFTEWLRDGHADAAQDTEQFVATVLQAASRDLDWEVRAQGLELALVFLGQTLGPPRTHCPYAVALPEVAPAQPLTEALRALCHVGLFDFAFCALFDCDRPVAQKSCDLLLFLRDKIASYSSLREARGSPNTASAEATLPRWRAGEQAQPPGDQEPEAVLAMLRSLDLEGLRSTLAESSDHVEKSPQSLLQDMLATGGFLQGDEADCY

ataxia telangiectasia mutated (endogenous, from human cell lysates)
in vitro PP2A phosphatase assay on immunoprecipitated ATM, Ser1981 phosphorylation by immunoblot: dephosphorylation of ATM Ser1981 was partially blocked in the presence of full length, baculovirus produced BAAT1
